Here are results for 20 sequences from a protein production outcome set (Wang et al. 2014).

This data set in a line: label from the status in PepcDB records.
With “MRSNHLPCWHTGPLSTLNVRPHLARAWHPLVCIYQRCLATALPTAPAVDSYCISTEIPYYDLVGRLGGKGPSKQTFTMQMLFHKKQRTPLGFCDGLDNVFVGFGSKDEKGCRPPKYHASYAPYYPIHKAASMGDVNTVKSFVERGVFAMEQTDWKYRTALHFACVYGHPEVVTLLVESSCEISPKDIKDATPLIKASQCRQTECLNILLKHGADPNIMDCSDNTALHYAVYNGDIETATKLLEYKANIEAINENKITPLLLALKQNKEKMAEFLIHNGANAKTCDFLGRSSLMYAVRCGSELIIKLLLQRDIDTFKQDVFGWTAKRYAVESKSRVRKLLIDYDEEELRQRCSVPKLSSSSLKELCLDSHYDRNTNISNTGKTREKFSQCTLWEEEHPILPTVKVKDSPRSEAVEKAEARPSKSESNEEDTCTTPTLPTTKVKDPSQSEAVEKAEARPSKSGKLTV”, the protein production result is on record as “failed”.

As to “MSMKILKASVFVIIVFFLMPLPVVAAKKGIYCGELKGSHYGPFDYMDRFNHSEQLKIVEDFHFTSDVEDLIRGSTSSTPAKDLNYTLHAWPNHHRALVSLFKYSIKEKSTRIKGLKYPVECYFDRAIRMNMKDVQVRSIYSAFLSHRGRNKEALEQLEVAANLEPDNATILYNLGLLYFKQKNYEKASHYAEKAYALDYPLPGLRNKLIQAGKWRGSASGRSGK”, the protein production entry was “failed”.

Regarding “QSKTATVFLHGYNGGAYSTNYLIRKAEKAGAAQKALVVHVYKNGVMAFKGYWQKSIKNPMVQVVFQDNHASQKAQIYWLHQVLVQLKAKYGVKAYNAVGHSLGANDIVNQALKYGHDKRLPTLNKIVTIGGPFDGLTGFLSTQTEATVRRLDVKPSRFTKHFSEMLKYRHNFPDNVKLLNVYGDTNTGYNNDGFVGVASARSIRYLLRGKLTQYQEAFYSGEQAAHCALNQNPSVAHKMIAFLW”, the protein production result is reported as “failed”.

On to “MPVKLATALSNNLFPALDSQLRAGRHIGIEELENHVFLMDFQEVLEEFYSRYNVELIRAPEGFFYLRPRSTTLIPRSVLSELDMMVGKILCYLYLSPERLAHEGIFSQQELYEELLSLADESKLLKLVNQRSTGSDLDRQKLQEKVRTSLNRLRRLGMIYFMGNDSSKFRITESVFRFGADVRSGDDAREAQLRMIRDGEAMPVEGSLSLKDDSDDNDRTDDTAPETGEDELEHHHHHH”, for which the protein production entry was “failed”.

With “MDRMAVAEEQILLERVRRKIEEVNASGQSQLSPIQEHISFTLLIYAPLIDDELQQAYFKCSNECFEKRRKPEVTTNCVELCRVPVAKSQQQFDSDMAKFQDRMNRSLMVCQDKFEAAKLLNMNRIDAAKDMEGCVNDAAAALLGG”, the protein production entry is reported as “failed”.

As to “MSTPDIGTFTVRPLDPTRDAELLHGWVTHPKSAFWMMQEARLHDVEREYMAIAASEYHDAFLGLLDDEPVFLMEKYDPAHVELVGLYEPEPGDVGMHFLVAPTDTPVHGFTRAVITAVMEHLFADPATRRVVVEPDVGNKAVHALNEAVGFVPEREIQKPEKKALLSFCTREQFAAAVRGAAV”, the protein production entry is given as “not failed”.

Turning to “MFITLLLFFLSAAIIYFACEFFVNGVEWVGHRFKLGATATGTVLAAFGTALPESAVTFMAVVFGTTPEQKDIGVGAAMGGPLVLATLAYAVVGLTLARTRRAGSSQVEAAINADQRRLARDQAWFMGVFVFKVALGLLAFAWKPWLGLLFLAVYGLYVKRELTREEECLDCEDLEPLKLRPRDPSPSLFWACAQTVLALAVIALASHVFVRQIELLGLAMGASPHVAALLLAPVATELPEIMNALIWVRQGKERLALANISGAMMIQATIPSAMMIQATIPSALGIFLTPWLLDAPLLAAGGFTLAAILLLWLRFRRAAMSVPALSAVGGLYALFAGYLGWHFYA”, the protein production result is recorded as “failed”.

Regarding “MDCYLNAANSFARILDEYQTYNSLVVAFDFDDTVYDFHKKGRLYADVVTLLRDLKKINCHLICWTGQEDLTFVKNYLMENNIPFDDINENPPFHVSSSKKVYANVYLDDRAGLKQVFGELTQLLQHESIRIKSV”, the protein production result is given as “failed”.

Consider “MESYDIEGSNQNYVYINVNRWTSTEYPQNTFVYEVLRTPIGSSLESGPEIVKVGVRSTKVASKDITVTLDIDNCASIGEFSSFPDGVKVTLDKKELVIPAGSMLSSDSVTIEIEDGKWSEFVNTSYLLPLKVTSVSNAALSETHSSAYLAVSTSFTNCVPGATSVEGTLISDRSAWTATNNGVDVGTTLFDGNTRTYPSQDASSTVIVNLNGVYQNITGIRLQYYSRNYSLSSAAVYTSETGGEDYEYQGNVTFSRATPQYIRFYGAVSARYVKLELLPYSSGYGIVLSEFDMYQNELEHHHHHH”, for which the protein production entry is on record as “not failed”.

Consider “LAPGLHFIATPIGAARDITLRALDILRAADVLAAEDTRTLRHLMEIHGIPLGGRPLVAYHDHNGEAARPRLLRALAEGRSVAYASEAGTPLVADPGFQLGRAAIAAGHPVLAAPGPS”, for which the protein production result is given as “failed”.

As to “MKFKTIIKASYSIIFLSFQKVLHWEHIKFTAFKNLLSVSTKILIDKSSSVKFAGKICTESNVELKALNGGKLFIAENVFINSNSIVVALDNIHIGSNTLIGPGVLIFDHDHDFEKDKNSGTKNGRHFVTKPIRIESDVWIGGNSVILKGVTIGKGAVIAAGSIVLKDVEPYCLYAGNPAKKIRSY”, the protein production entry was “failed”.

Take “MSASVVCVVGNPNCGKTTLFNALTGGRQSVGNWPGVTVEKKVGAYRHGGEAVTIVDLPGVYSLTPTSSSSEDERVARDYILSGEAGLVLNIVDASNLERNLYLTAQLLEMRVPMVVIVNMMDIAASRHLDIDIDALSKSLDCKVVPMVASRRRGLDDLREVIAQSMGRTTPPAASAPYPPAVSEAVGRIAATLPADSRADRRWTALQLLEGDSTLLRDLPPATALALESDLKQAAQSGTEDFDILIADARYGFVGAIALGAVIRKGQMSRTLTDRIDKVVLHRVLGIPIFLAMMYLMFVFTINVGGAFIDFFDQFAGTLFVDGFGHLLGGAGAPDWLTALLAKGVGGGVQTVATFIPVIGFLYLFLSVLEDSGYMARAAFVMDRFMRGIGLPGKAFVPLIVGFGCNVPAVMATRTMDSRRDRLITVMMAPFMSCGARLPVYVLFAAAFFPSGGQNLVFALYLIGILVAIATGLLLKTTALRGEASPFVMEMPPYHLPTVAGILLRTWDRLKSFILRAGKLVVAVVVVLSFLNSWGTDGSFGNEDTDKSVLAAIGKAIVPVFAPMGISEENWPATVGVFTGIFAKEAVVGTLDALYGTIAEGNAAAAQAEADPEAAATEEPEAFDLWGGLAGAFATIPANLSNVAGALADPLGIEVGDLSDRSAVAADQEISTSSIDAIALLFDGAIGAFAYLLMVLLYMPCVAAVSAIWREVGTRWTLFAAAWTTGMGYGAAVLTYQIGTFSRHPVSSAVDIAVVLAVLAAAIALLRLAGRGSAEAGPISAGQTAS”: the protein production entry is “failed”.

“MTEHSSDYYQRLVDESALEEFLTREIGPAETFDVARHEQGHSNETLFVTWGDRELVVRRPPPGQTAETAHDVLREYRVIDALQDTAVPVPPTVTACDDQTIIGSDFYVMARVEGTVIRDDEPARFGSDDARAAVGTELVDTLAAIHEVDPTAVGLSDLGRADGYAKRQVARWGKQLAWAFERTAESRTIPELERVGSWLQDECPDDHPKTLVHGDYKLDNVMFGPGDDPELAAVFDWEMATLGDPRADLGWLLSYWRDAKDPEPEIPDLAMEFIEAPGYLTRTDLVDRWEAQTGLTFEHERFYRTLAVYKLAALGEMFYRRYLEGNADDPFYPLMEDRVPALANRAVRIIEGDEPL”: the protein production result is “failed”.

On to “MSASIMTWPVLSVVTFLPVLGAALVYLARGEDEAARRNARWISLWTTLITFAVSLLLVWHFDPANPGFQFVEKAPWLGNTITYHMGLDGISLPLVILTTAIMPFCIIASWRSVTVRVREYMIAFLILETLMIGTFSALDLVLFYLFFEGGLIPMFLIIGIWGGPRRVYASFKFFLYTLLGSVLMLLAIMALYWNAGTTDIPTLMRTSVPSGLQTWAWLAFFASFAVKMPMWPVHTWLPDAHVEAPTAGSVVLAAILLKMGGYGFLRFSLPMFPDASAYFAPLIYTLSVIAIIYTSLVALMQEDIKKLIAYSSVAHMGFVTMGIFAGTTQGVAGAVFQMVSHGIVSGALFLCVGVVYDRMHTREIAAYGGLVNRMPLYALVFMVFTMANVGLPGTSGFVGEFLTLLGTFRVNIPTATLATTGVILSAGYALWLYRKVVFGAMTKPALASIKDLTWREGLMMAPLLVLTILFGFYPKPVLDMSAASVQQLVNNYAAAVTAVKAAALP”, for which the protein production entry is given as “failed”.

For the sequence “TLQEYQKRMKKLDQQYKERIRNAELFLQLETEQVERNYIKEKKAAVKEFEDKKVELKENLIAELEEKKKMIENEKLTMELTGDSMEVKPIMTRKLRRRPNDPVPIPDKRRKPAPAQLNYLLTDEQIMEDLRTLNKLKSPKRPASPSSPEHLPATPAESPAQRFEARIEDGKLYYDKRWYHKSQAIYLESKDNQKLSCVISSVGANEIWVRKTSDSTKMRIYLGQLQRGLFVIRRRSAA”, the protein production result is “failed”.

For the sequence “TALIASGLVPQPFYFYGFLPRKKNEQKADLAKLARRHETVVLYESPFRVAKTLTLLATVCEGTRPIVACRELTKRYEEFARGTLAEMVTWAQDHQLKGEFVLLIGGNPDK”, the protein production entry is recorded as “failed”.

For “MWRRSLTESHSNELRLELTSRIVSAYLSRNVIAPSELPHLIQQTYGSLGKTSEPTKTPATVEEQRPAVPIKKSVTDDFIVCLEDGKSFKSLKRHLMAKYALTPEQYREKWKLPADYPMVAPNYARKRSELARATGLGKKSAANLSPSLQAVRSA”, the protein production result is reported as “not failed”.

With “MITSIARQSIILKCLRQKSVLVSNYELYYTAGLAKKCFGIAVDADMEPKQLLEELQKHIDKVSPADEQEKYLIHLLGNYEPDDTHDEQTVELFHMGETEEHIWQVSIT”, the protein production result is on record as “not failed”.

Take “MNHPYRWVIVAAGGVLGCVAAGAMFSLPVLIRPMSQDTGWSVTGISTAMTIGFLAMAAASMVWGNLSDRFGPRPVVLTGSVVLAASLALGSRATSLIEFQLLFGALVGAATAAVFAPMMACVTGWFDTGRGLAVSLVSAGMGMAPLTMAPLAAWLVTIHDWRGAMLIISAITAALMIPAALLVRRPPALEPGGAEGAWADAQDDMTLRQAVRSPQFVTLLLANFFCCATHSGPIFHTVSYAVTCGIPMIAATSIYSVEGLSGMFGRLGFGLAGDRFGAQRVLVIGLLAQAFGVLAYAFVGGLGGFYAVAVAVGFIYAGTMPLYAVIIRENFPLRMMGTIVGGTAMAGSLGMSTGPVLGGLIYDAYDSYAPMYVASCGMGLAAMLILATFRPFPQRRGELAVA”: the protein production result is recorded as “failed”.

In the case of “MLKKEYLKNPYLVLFAMIVLAYVFSVFCRFYWVWWASEFNEYFFNNQLMIISNDGYAFAEGARDMIAGFHQPNDLSYYGSSLSTLTYWLYKITPFSFESIILYMSTFLSSLVVIPIILLANEYKRPLMGFVAALLASVANSYYNRTMSGYYDTDMLVIVLPMFILFFMVRMILKKDFFSLIALPLFIGIYLWWYPSSYTLNVALIGLFLIYTLIFHRKEKIFYIAVILSSLTLSNIAWFYQSAIIVILFALFALEQKRLNFMIIGILGSATLIFLILSGGVDPILYQLKFYIFRSDESANLTQGFMYFNVNQTIQEVENVDFSEFMRRISGSEIVFLFSLFGFVWLLRKHKSMIMALPILVLGFLALKGGLRFTIYSVPVMALGFGFLLSEFKAILVKKYSQLTSNVCIVFATILTLAPVFIHIYNYKAPTVFSQNEASLLNQLKNIANREDYVVTWWDYGYPVRYYSDVKTLVDGGKHLGKDNFFPSFSLSKDEQAAANMARLSVEYTEKSFYAPQNDILKSDILQAMMKDYNQSNVDLFLASLSKPDFKIDTPKTRDIYLYMPARMSLIFSTVASFSFINLDTGVLDKPFTFSTAYPLDVKNGEIYLSNGVVLSDDFRSFKIGDNVVSVNSIVEINSIKQGEYKITPIDDKAQFYIFYLKDSAIPYAQFILMDKTMFNSAYVQMFFLGNYDKNLFDLVINSRDAKVFKLKI”, the protein production entry was “failed”.
